Laboratory results from US20030113774A1.

How the values were obtained:
[1] = biological target: pGal4-AD-SV40 (control plasmid, SV40 protein fused to Gal4-AD) (UniProt P03070); experiment: yeast two-hybrid, quantitative liquid β-galactosidase assay (positive control pair)
[2] = biological target: pGal4-AD-p53-1 (p53 clone 1 from the mouse embryonic cDNA library, fused to Gal4-AD) (mouse) (UniProt P02340); experiment: yeast two-hybrid, quantitative liquid β-galactosidase assay
[3] = biological target: pGal4-AD-p53-2 (p53 clone 2 from the mouse embryonic cDNA library, fused to Gal4-AD) (mouse) (UniProt P02340); experiment: as above

Chain of UniProt P03070 (P03070 84-708): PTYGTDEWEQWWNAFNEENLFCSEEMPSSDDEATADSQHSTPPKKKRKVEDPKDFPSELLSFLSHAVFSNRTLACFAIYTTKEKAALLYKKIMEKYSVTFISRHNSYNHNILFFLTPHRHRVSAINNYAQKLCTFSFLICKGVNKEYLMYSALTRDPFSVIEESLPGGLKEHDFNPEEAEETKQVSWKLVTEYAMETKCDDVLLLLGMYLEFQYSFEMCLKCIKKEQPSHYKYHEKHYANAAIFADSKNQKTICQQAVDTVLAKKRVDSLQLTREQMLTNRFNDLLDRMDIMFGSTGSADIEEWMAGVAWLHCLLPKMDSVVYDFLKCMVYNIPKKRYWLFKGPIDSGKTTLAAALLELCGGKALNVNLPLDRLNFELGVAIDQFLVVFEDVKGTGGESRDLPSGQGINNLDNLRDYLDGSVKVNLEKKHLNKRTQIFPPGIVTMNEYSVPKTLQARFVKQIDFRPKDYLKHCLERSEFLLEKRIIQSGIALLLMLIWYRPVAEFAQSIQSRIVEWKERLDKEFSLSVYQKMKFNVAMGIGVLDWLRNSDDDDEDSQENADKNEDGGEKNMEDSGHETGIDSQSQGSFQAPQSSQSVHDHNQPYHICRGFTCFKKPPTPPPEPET

| Substance | β-galactosidase [1] | β-galactosidase [2] | β-galactosidase [3] |
| --- | --- | --- | --- |
| pGal4-BD-p53 (control plasmid, p53 fused to the Gal4 binding domain) (from UniProt P04386 1-147) | 65.3 nmol/min/mg | – | – |
| pGal4-BD-p40 bait fusion protein comprised of the Gal4 binding domain and a p40 protein (from UniProt P04386 1-147) | – | 33.6 nmol/min/mg | 31.8 nmol/min/mg |
